The supplement of paper PMC9170038

System: MS2 coat protein
Assay: apparent KD of MS2 coat protein; designed switch direction (-1 OFF switch, 1 ON switch): -1; higher = weaker reporter binding
Summary of the method: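 For each design, the apparent KD is the median over clusters of curves fitted to normalised cluster fluorescence. Clusters held RNA switches with common flanks, transcribed on Illumina chips by stalled E. coli RNA polymerase. These were titrated with SNAP-549-labelled MS2 coat protein, doubling from 0.7 or 1.5 nM to 3 µM, without input, with 200 uM small-molecule ligand, or with an oligonucleotide input.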

[1] = Eterna round: R95, input ligand: FMN 200 uM
[2] = Eterna round: R95, input ligand: microRNA oligo, concentration not stated
[3] = Eterna round: R95, input ligand: none
[4] = input ligand: microRNA oligo, concentration not stated

| Sequence | apparent KD of MS2 coat protein (input ligand: FMN 200 uM) [nM] | apparent KD of MS2 coat protein (input ligand: none) [nM] | apparent KD of MS2 coat protein [1] [nM] | apparent KD of MS2 coat protein [2] [nM] | apparent KD of MS2 coat protein [3] [nM] | apparent KD of MS2 coat protein [4] [nM] |
| --- | --- | --- | --- | --- | --- | --- |
| UUGUCGGCAGGAUAUACAUGAGGAUCACCCAUGUAAAUUUUUCGUUUAACUUGAAUGUGUAGAAGGGCCAUGUU [Ex3 #71] (Eterna round: R97, puzzle: Exclusion 3) | 35.3 | 24.5 |  |  |  |  |
| CACAGGAGACGGAGAUCCAACAUGAGGAUCACCCAUGUCUCAAAAGCUUUUUGCUUGUCUUAUCCUCCUCUCUUGAC [Mat - Sensor, turn-off var - Eli Mod - D60] (Eterna round: R97, puzzle: Sensor, turn-off variant 1) | 26 | 28.1 |  |  |  |  |
| GCUAGCCAUGUCAGGAUAUGCUGUACCUUGGUACAGCAGAAGGGACAUGAGGAUCACCCAUGUGCCUAGCUAGC [JL-BMX4-4.03] (Eterna round: R97, puzzle: Brourd's mod of Exclusion 4) | 197 | 27.1 |  |  |  |  |
| UACAGUCAUCCUUAUUGUUACAUGAGGAUCACCCAUGUUAGUAUAAUUAAGUUAUGUAAGUUUGUUGUUCGUUUUAU [JR_STOV1_v2_Sub075] (Eterna round: R97, puzzle: Sensor, turn-off variant 1) | 81.9 | 84.6 |  |  |  |  |
| GGAAAGCAAGGAUAUACAAGUAAACGACGGAAAGUAGAGAGACAUGAGGAUCACCCAUGUAGAAGGUGCGAGAG [JR_Exclu2_Sub035] (puzzle: Exclusion 2) |  |  | 19 | 26.9 | 20.1 |  |
| CUCGUGUAAGGAUAUAUGAGUCACGGAAAUAAACCGUGAAGAUAGAAGGUACAUGAGGAUCACCCAUGUAAAAC [Mod of Anonveat 4 - Jieux - Exclusion 4] (Eterna round: R97, puzzle: Exclusion 4) | 124 | 99.4 |  |  |  |  |
| CCGGCUUACUAGGAUAUCAGAGUCGAAAGACUCUGAGAAGGAGUAACAUGAGGAUCACCCAUGUGUCCUACCGG [Mod of Eli 9 - Jieux - Exclusion 6] (Eterna round: R97, puzzle: Exclusion 6) | 113 | 29.5 |  |  |  |  |
| AAGAAGUCAGGAUAUACAUGAGGAUCACCCAUGUAAAAGAAAGAAAAGGGAAAGAAAAGUAGAAGGGACAAGAA [Menkheperre Thutmose III] (Eterna round: R96, puzzle: Exclusion 3) | 22.9 | 27.2 |  |  |  | 21.8 |
| UAAUAACAAGCAGGAUCCUACAUGAGGAUCACCCAUGUGCUCGUCUUAUAAAGUACUAUCACGAAAGUGAUAGUACU [Mat - Sensor v3 - turn-off var 1 - Eli Mod - D73] (puzzle: Sensor v3, turn-off variant 1) |  |  | 208 | 71.9 | 250 |  |
| GAGAAACAUGAGGAUCACCCAUGUGAGGAUAUGAGCACGCCGGUGACGGUGAUAAGAAUCAGAAGGCACAAAGG [Mat - Exclusion 1 - JL Mod - D33] (Eterna round: R97, puzzle: Exclusion 1) | 422 | 67.6 |  |  |  |  |
| CAGGAUAGAGGAUAUACAUAGAUACAGGUUCAUGUAAUCCUACAUGAGGAUCACCCAUGUAGAAGGCUAUCCUG [Fiskers Ex 2 - 19] (puzzle: Exclusion 2) |  |  |  | 14.8 |  |  |
| UGAGACUGAGGAUAUACUAGCCCAUAAAGUGGGUAGUGGGUACAUGAGGAUCACCCAUGUAGAAGGCAGCCUCG [Omei Repeat Sequence v2] (Eterna round: R97, puzzle: Exclusion 2) | 251 | 29.4 |  |  |  |  |
| CCGGUUGGCGCAGGAUAUACAUGAGGAUCACCCAUGUUCAUCAGGAUCACCGAUGAGUUUUUGUUGUAGAAGGGUGGCCCGGCC (Eterna round: R96, puzzle: Exclusion NG 2) |  |  |  |  |  | 24.2 |
| UUUAACGAUGAGGAUAUAUGAUAUCAAAGCAUCAUAGAAGGCAUCACAUGAGGAUCACCCAUGUGAUCUUCUUG [Mat - Exclusion 6 - JL Mod - D28] (Eterna round: R97, puzzle: Exclusion 6) | 94 | 29.4 |  |  |  |  |
| AACAGUCUGGAGGAUAUGCUGGAUUAAUAUCUGGCAGAAGGCUGGACAUGAGGAUCACCCAUGUAAAUACUACC [Omei Ex6 A2] (Eterna round: R97, puzzle: Exclusion 6) | 55.2 | 21.5 |  |  |  |  |
| AAAUUGUGAGGAUAUCAGGUGUGCUAGCGUACUGGUACAUCUGAGAAGGCACAUGAGGAUCACCCAUGUUUCUU [Mat - Exclusion 4 - Mod of JL - D43] (puzzle: Exclusion 4) |  |  |  | 15.2 |  |  |
| GGCACACAUGAGGAUCACCCAUGUGAGGAUAUGUGGCGAUCGUCGAUAGACGAUAGCCACAGAAGGCACAGGCC [Mat - Exclusion 1 - Eli Mod - D21] (Eterna round: R97, puzzle: Exclusion 1) | 23.2 | 19.2 |  |  |  |  |

| Sequence | apparent KD of MS2 coat protein (input ligand: FMN 200 uM) [nM] | apparent KD of MS2 coat protein (input ligand: none) [nM] | apparent KD of MS2 coat protein [1] [nM] | apparent KD of MS2 coat protein [2] [nM] | apparent KD of MS2 coat protein [3] [nM] | apparent KD of MS2 coat protein [4] [nM] |
| --- | --- | --- | --- | --- | --- | --- |
| CUGUACUGAGGAUAUACAUGAGGAUCACCCAUGUUCCAAGGCUAGGAAACUAGCAAAGGUAGAAGGCAGUACAG [Mat - Exclusion 3 - Eli Mod - D67] (Eterna round: R97, puzzle: Exclusion 3) | 215 | 17.8 |  |  |  |  |
| GACCUGAGGCAAAGCUUUAGGCUUACAUGAGGAUCACCCAUGUAGGAUAUGGUAGGCAAAGCUUACCAGAAGGACAUGGAAAUU [Mat - Exclusion NG 3 - Mod of JL - D25] (Eterna round: R96, puzzle: Exclusion NG 3) | 646 | 125 |  |  |  | 98.7 |
| GGGAGGAGAGUGAGGAUAUUCGAGGGAGGGAGGGUGAAGAAGGCACAUGAGGAUCACCCAUGUGGUGGGAGGUU [RHig 1] (Eterna round: R97, puzzle: Brourd's mod of Exclusion 4) | 23.9 | 38.3 |  |  |  |  |
| UGCAGACGAGGAUAUAGAUUUAGAUACAUGAGGAUCACCCAUGUAUACAUGUAUUUAGAUUUAGAAGGCGUCUGCU [E5/14-A3] (Eterna round: R97, puzzle: Exclusion 5) | 952 | 2220 |  |  |  |  |
| UCACCGCAAGGAUAUACUUGCGGUGAUGCUCGAAAUCUUCUACUUGAGGAUCACCCAAGUAGAAGGUGCGGUGA [jl-ex2.4.67 ViennaUCT mod] (Eterna round: R97, puzzle: Exclusion 2) | 13 | 12.1 |  |  |  |  |
| CUUUUGUGAGGAUAUUAGUAGUUUAUAAUUAAAAUUAUUACUGAGAAGGCACAUGAGGAUCACCCAUGUAAAAC [JR_Ex4_Sub029] (Eterna round: R97, puzzle: Exclusion 4) | 122 | 104 |  |  |  |  |
| AAUAACAAGUAAGAUCCUAACAUGAGGAUCACCCAUGUGCUCGUCUUGUAAAGUACUAUCACGAAAGUGAUAGUACA [Sensor 3, v1 - 51] (puzzle: Sensor v3, turn-off variant 1) |  |  | 48.3 | 295 | 54.7 |  |
| GAUAGAGAGCAGGAUAUCAUAGAAAUGUAUGAAUGAGAAGGGCUCACAUGAGGAUCACCCAUGUGGUCCUAGAU [JL Dibiri mod 19] (puzzle: Exclusion 6) |  |  | 135 | 22.4 | 21.1 |  |
| GGAGUACAUGAGGAUCACCCAUGUGAGGAUAUGUAAGGAUAGUAGGUAAGGAAAGAGGACAGAAGGCACGGGAA [JR_Exclu1_Sub070] (puzzle: Exclusion 1) |  |  | 46 | 41.4 | 67.2 |  |
| AGCUGUGGCCGAGGAUAUCCAGCCUUAAAUACCGACGUAUAGUCGGACAUGAGGAUCACCCAUGUGGAGAAGGUGGUCUCAGCA [Eli eng2 - 041] (Eterna round: R96, puzzle: Exclusion NG 2) | 93.1 | 42.7 |  |  |  | 41.8 |
| ACAUGAGGAUCACCCAUGUGCCCAUCUAGCACAUGUCCUCGCUAGGAUAUGUAGGCCUCGAGGCCGCAGAAGGAGCUAAAAGAG [Atgequa] (Eterna round: R96, puzzle: Exclusion NG 3) | 453 | 127 |  |  |  | 82.8 |
| AACAGUACAGGAUAUACAUGAGGAUCACCCAUGUGAGACUUAAGUGGCGUACCACAAAGUAGAAGGGUACUGGA [JL Maslow Revisted mod 8] (Eterna round: R96, puzzle: Exclusion 3) | 838 | 90.3 |  |  |  | 85.9 |
| CUCAUGUGAGGAUAUAGUGCGUCUUCUAUUAUUAUUGAGUACUAGAAGGCACAUGAGGAUCACCCAUGUAGCAC [Ex4 - 3 - 45] (puzzle: Exclusion 4) |  |  |  | 41.9 |  |  |
| UUUUUAUAUGAAGGAUAUACUUAACAUGAGGAUCACCCAUGUGGUGUUGUGAGUGAGUGAGUUUAGUAGAAGGUCAAUUCUUUA [JMF's solution 83] (Eterna round: R96, puzzle: Exclusion NG 2) | 866 | 463 |  |  |  | 443 |
| GUUAACGAAGAGGAUAUAUGAUAUCAAAGCUUCAUAGAAGGCUUCACAUGAGGAUCACCCAUGUGAUCUUCUUU [jl-ex6-4.09 ViennaUCT mod] (Eterna round: R97, puzzle: Exclusion 6) | 44.2 | 15.1 |  |  |  |  |
| AGUACUAUCACGAAAGUGAUAGUACAAAGAGCAAGUGGAACAUGAGGAUCACCCAUGUCCUCAUAUGCUCGUCUUAU [salish99-s2-v2-x003] (Eterna round: R96, puzzle: Sensor v2, turn-off variant 2) | 14.6 | 16.1 |  |  |  | 322 |
